This series can be described thus: yeast display, Sf9 membrane polyspecificity reagent, FACS + sequencing; frameworks hold sequencing errors. In outline:
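Galactose induction of a Saccharomyces cerevisiae BJ5465 synthetic nanobody display library ran 36–48 hours. The cells were then stained for 1 hour at 4 °C with 10% biotinylated, detergent-solubilized Sf9 membrane reagent, pulled down on streptavidin microbeads and FACS-sorted into low and high (top ~1%) gates on expression and reagent-binding fluorescence. Labels for polyreactivity follow the gate of origin.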
Regarding “QVQLVESGGGLVQAGGSLRLSCAASGRTFYRYAMGWYRQAPGKERELVATINWTSGSTNYADSVKGRFTISRDNAKNTVYLQMNSLKPEDTAVYYCAARGPVGYGWRYRPWHDYWGQGTQVTVSS”, the “polyreactivity (PSR sort gate)” value is “high polyreactivity”.

“QVQLVESGGGLVQAGGSLRLSCAASGRTFYRYAMGWYRQAPGNERELVAAISYSTTRTYYADSVKGRFTISRDNAKNTVYLQMNSLKPEDTAVYYCAAYGWTRFGYDYWGQGTQVTVSS”: the “polyreactivity (PSR sort gate)” value is recorded as “high polyreactivity”.

Consider “QVQLVESGGGLVQAGGSLRLSCAASGRTFYSNAMGWYRQAPGKERELVAAISRRGGRTYYADSVKGRFTISRDNAKNTVYLQMNSLKPEDTAVYYCAADAYLYQPEDYYYWGQGTQVTVSS”, for which the “polyreactivity (PSR sort gate)” value was “high polyreactivity”.

As for “QVQLVESGGGLVQAGGSLRLSCAASGRTFYSNAMGWYRQAPGKERELVAAISSSGARTYYADSVKGRFTISRDNAKNTVYLQMNSLKPEDTAVYYCNAPTQYRYYWGQGTQVTVSS”, the “polyreactivity (PSR sort gate)” value was “high polyreactivity”.

“QVQLVESGGGLVQAGGSLRLSCAASGRTFYSNAMGWYRQAPGKERELVAAITFGGGSTYYADSVKGRFTISRDNAKNTVYLQMNSLKPEDTAVYYCAAEGYKYRFYYWGQGTQVTVSS”: the “polyreactivity (PSR sort gate)” value was “low polyreactivity”.

As to “QVQLVESGGGLVQAGGSLRLSCAASGRTFYSNAMGWYRQAPGKERELVATISSSGGSTYYADSVKGRFTISRDNAKNTVYLQMNSLKPEDTAVYYCAADPSGDYWGQGTQVTVSS”, the “polyreactivity (PSR sort gate)” value is reported as “low polyreactivity”.

“QVQLVESGGGLVQAGGSLRLSCAASGRTFYSNAMGWYRQAPGKERELVATITLSGGSTDYADSVKGRFTISRDNAKNTVYLQMNSLKPEDTAVYYCNADTDVHLIMGYWGQGTQVTVSS”: the “polyreactivity (PSR sort gate)” value is “low polyreactivity”.

As for “QVQLVESGGGLVQAGGSLRLSCAASGRTFYSNTMGWYRQSPGKERELVAAIDWSGGRTYYADSVKGRFTISRDNAKNTVYLQMHSLKPEDTAVYYCNTVGYSLRLRTGGYWGQGTQVTVSS”, the “polyreactivity (PSR sort gate)” value is “high polyreactivity”.

Turning to “QVQLVESGGGLVQAGGSLRLSCAASGRTFYSYAKGWYRQAPGKERELVASITSTGSTYYADSVKGRFTISRDNAKNTVYLQMNSLKPEDTAVYYCAARRQPRYSQRSTYYYWGQGTQVTVSS”, the “polyreactivity (PSR sort gate)” value is listed as “high polyreactivity”.

Regarding “QVQLVESGGGLVQAGGSLRLSCAASGRTFYSYAMGWYRQAPGKERELVAAINSGGDTYYADSVKGRFTISRDNAKNTVYLQMNSLKPEDTAVYYCAADYYWEMDTWGQGTQVTVSS”, the “polyreactivity (PSR sort gate)” value is “low polyreactivity”.

Take “QVQLVESGGGLVQAGGSLRLSCAASGRTFYSYAMGWYRQAPGKERELVAAISSGGTTYYADSVKGRFTISRDNAKNTVYLQMNSLKPEDTAVYYCATSRAWRYRSYYWGQGTQVTVSS”: the “polyreactivity (PSR sort gate)” value is recorded as “high polyreactivity”.

Turning to “QVQLVESGGGLVQAGGSLRLSCAASGRTFYSYAMGWYRQAPGKERELVAAISWNGGSTYYADSVKGRFTISRDNAKNTVYLQMNSLKPEDTAVYYCAAVPLRNRWPNSWPALDYWGQGTQVTVSS”, the “polyreactivity (PSR sort gate)” value is reported as “high polyreactivity”.

Take “QVQLVESGGGLVQAGGSLRLSCAASGRTFYSYAMGWYRQAPGKERELVATIRRGGRTNYADSVKGRFTISRDNAKNTVYLQMNSLKPEDTAVYYCAAEDYLSWVTSTYDYWGQGTQVAVSS”: the “polyreactivity (PSR sort gate)” value was “low polyreactivity”.

As to “QVQLVESGGGLVQAGGSLRLSCAASGRTFYSYARGWYRQAPGKERELVAAINSGGDTYYADSVKGRFTISRDNAKNTVYLQMNSLKPEDTAVDYCAADIEVQYITLGVELPYDYWGQGTQVTVSS”, the “polyreactivity (PSR sort gate)” value is on record as “low polyreactivity”.

Regarding “QVQLVESGGGLVQAGGSLRLSCAASGRTFYTNAMGWYRQAPGKERELVAAITRGGTTYYADSVKGRFTISRDNAKNTVYLQMNSLKPVDTAVYYCAADTESIVATDLIRKYDYWGQGTQVTVSS”, the “polyreactivity (PSR sort gate)” value is given as “low polyreactivity”.

On to “QVQLVESGGGLVQAGGSLRLSCAASGRTFYTYAMGWYIQAPGKEREFVAAIRFSGGNTYYADSVKGRFTISRDNAKNTVYLQMKSLKPEDTAVYYCAARRLLYKYWTGGPYDYWGQGTQVTVSS”, for which the “polyreactivity (PSR sort gate)” value is given as “high polyreactivity”.

On to “QVQLVESGGGLVQAGGSLRLSCAASGRTFYTYAMGWYRQAPGKERELVAAITYSGGRTSYADSVKGRFTISRDNAKNTVYLQMNSLKPEDTAVYYCAARTLGRRLDYGYWGQGTQVSVSS”, for which the “polyreactivity (PSR sort gate)” value is “low polyreactivity”.

For the sequence “QVQLVESGGGLVQAGGSLRLSCAASGRTFYTYAMGWYRQAPGKERELVATITSGGSTYYGDSVKGRFTISRDNAKNTVYLQMNSLKPEDTAVYYCDVEVFVDYDYWGQGTQVTVSS”, the “polyreactivity (PSR sort gate)” value is on record as “high polyreactivity”.

As for “QVQLVESGGGLVQAGGSLRLSCAASGRTFYVNAMGWYRQAPGKERELVAGISFSDGSTYYADSVKGRFTISRDNAKNTVYLQMNSLKPEDTAVYYCASVGAFDIYYGYGYWGQGTQVTVSS”, the “polyreactivity (PSR sort gate)” value is recorded as “low polyreactivity”.

As to “QVQLVESGGGLVQAGGSLRLSCAASGRTFYVYTMGWYRQAPGKERELVAAISSGGTTNYADSVKGRFTISRDNAKNTVYLQMNSLKPEDTAVYYCATERGYRYRGPLRVNYDYWGQGTQVTVSS”, the “polyreactivity (PSR sort gate)” value is reported as “low polyreactivity”.

With “QVQLVESGGGLVQAGGSLRLSCAASGRTFYWNAMGWYRQAPGKEREFVAAITNTAGYTYYADSVKGRFTISRDNAKNTVYLQMNSLKPEDTAVYYCAKSGNAGYRTYLRDYWGQGTQVTVSS”, the “polyreactivity (PSR sort gate)” value is “low polyreactivity”.

For the sequence “QVQLVESGGGLVQAGGSLRLSCAASGRTFYWYAMGWYRKAPGKERELVAAITSGGSTYYADSVKGRFTISRDNEKNTVYLQMNILKPEDTAVYYCGVDVDWWDGMDYWGQGTQVTVSS”, the “polyreactivity (PSR sort gate)” value was “high polyreactivity”.

On to “QVQLVESGGGLVQAGGSLRLSCAASGRTFYWYAMGWYRQAPGKERELVAAIRRSGGRTYYADSVKGRFTISRDNAKNTVYLQMNSLKPEDTAVYYCNVAYLRYPGPLDYWGQGTQVTVSS”, for which the “polyreactivity (PSR sort gate)” value is listed as “high polyreactivity”.

With “QVQLVESGGGLVQAGGSLRLSCAASGRTFYWYVMGWYRQAPGKERELVAAITQTGSSTYYADSVKGRFTISRDNAKNTVYLQMNSLKPEDTAVYYCADRLSRNHYEVDYWGQGTQVTVSS”, the “polyreactivity (PSR sort gate)” value is “low polyreactivity”.

For the sequence “QVQLVESGGGLVQAGGSLRLSCAASGRTFYYAMGWYRPAPGKERELVAGITWSGGSTYYADSVKGRFTISRDNAKNTVYLQMNSLKPEDTAVYYCNAVYRYRTYRYDYWGQGTQVTVSS”, the “polyreactivity (PSR sort gate)” value is given as “high polyreactivity”.

As to “QVQLVESGGGLVQAGGSLRLSCAASGRTFYYNAMGWYRQAHGKERQLVADINWSGVRTYYADSVKGRFTISRDNAKNTVYLQMNSLKPEDTAVYYCAARVGPYSLAVDGFKHGYWGQGTQVTVSS”, the “polyreactivity (PSR sort gate)” value is recorded as “low polyreactivity”.

For “QVQLVESGGGLVQAGGSLRLSCAASGRTFYYNAMGWYRQAPGKERELVAAISASSGRTYYADSVKGRFTISRDNAKNTVYFPMNSLKPEDTAVYYCANRYGGDYTRGYGYWGQGTQVTVSS”, the “polyreactivity (PSR sort gate)” value is on record as “high polyreactivity”.

“QVQLVESGGGLVQAGGSLRLSCAASGRTFYYNAMGWYRQAPGKERELVATISWRGGNTYYADSVKGRFTISRDNAKNTVYLQMNSLKPEDTAVYYCNARTVGWKALTGKYDYWGQGTQVTVSS”: the “polyreactivity (PSR sort gate)” value is “high polyreactivity”.

For the sequence “QVQLVESGGGLVQAGGSLRLSCAASGRTFYYNAMVWYRQAPGKERELVAAITWSGGRTFYADSVKGRFTISRDNAKNTVYLQMNSLKPEDTAVYYCNAYPVFRSYDYWGQGTQVTVSS”, the “polyreactivity (PSR sort gate)” value was “high polyreactivity”.

Turning to “QVQLVESGGGLVQAGGSLRLSCAASGRTFYYNTMGWYRQAPGKERELVATISRIGGSTYYADSVKGRFTISRDNAKNTVYLQMNSLKPEDTAVYYCAAYVAAYPTGYDYWGQGTQVTVSS”, the “polyreactivity (PSR sort gate)” value was “high polyreactivity”.

“QVQLVESGGGLVQAGGSLRLSCAASGRTFYYYAMGWSRPAPGKERELVAGINSGGSTNYADSVKGRFTISRDNAKNTVYLQMNRLKPEDTAVYYCAVEDLGSEGWGWYKEMDYWGQGTQVTVSS”: the “polyreactivity (PSR sort gate)” value is on record as “low polyreactivity”.

With “QVQLVESGGGLVQAGGSLRLSCAASGRTFYYYAMGWYRLAPGKERELVAAISNRGGSTYYADSVKGRFTISRDNAKNTVYLQMNCLKPEDTAVYYCARRYSYLYTYGSWGQGPQVTVSS”, the “polyreactivity (PSR sort gate)” value was “high polyreactivity”.

Turning to “QVQLVESGGGLVQAGGSLRLSCAASGRTFYYYAMGWYRPAPGKERELVAAITSGGRTYYADSVKGRFTISRDNAKNRVYLQMQSLKPEDTAVYYCAARDFFRYSLGYDYWGQGTQVTVSS”, the “polyreactivity (PSR sort gate)” value is on record as “high polyreactivity”.

As to “QVQLVESGGGLVQAGGSLRLSCAASGRTFYYYAMGWYRQAPGKEREFVAAITYRGDSTNYADSVKGRFTISRDNAKNTVYLQMNSLKPEDTAVYYCAADSPYQIYYYWGQGTQVTVSS”, the “polyreactivity (PSR sort gate)” value is recorded as “low polyreactivity”.

Take “QVQLVESGGGLVQAGGSLRLSCAASGRTFYYYAMGWYRQAPGKEREFVASISYSGARTYYADSVKGRFTISRDNAKNTVYLQVNSLKPEDTAVYYCDAGYPLGGDYWGQGTQVTVSS”: the “polyreactivity (PSR sort gate)” value is given as “high polyreactivity”.

In the case of “QVQLVESGGGLVQAGGSLRLSCAASGRTFYYYAMGWYRQAPGKERELVAAINWSSGSTYYADSVKGRFTISRDNAKNTVYLQMNSLKPEDTAVYYCNAESRWYIIPYGDFDYWGQGTQVTVSS”, the “polyreactivity (PSR sort gate)” value was “low polyreactivity”.

On to “QVQLVESGGGLVQAGGSLRLSCAASGRTFYYYAMGWYRQAPGKERELVAAISSSGGSTYYADSVKGRFTISRDNAKNTVYLQMNSLKPEDTAVYYCNARYGGYRARYTYNYWGQGTQVTVSS”, for which the “polyreactivity (PSR sort gate)” value was “high polyreactivity”.

Consider “QVQLVESGGGLVQAGGSLRLSCAASGRTFYYYAMGWYRQAPGKERELVADITYSGGSTYYADSVKGRFTISRDNAKNTVYLQMNSLKPEDTAVYYCAARVTVSHWPYYYDSYDYWGQGTQVTVSS”, for which the “polyreactivity (PSR sort gate)” value is on record as “low polyreactivity”.

With “QVQLVESGGGLVQAGGSLRLSCAASGRTFYYYAMGWYRQAPGKERELVAGITATGSSTYYADSVKGRFTISRDNAKYTVYLQMNSLKPEDTAVYYCAADGYRIDVYHADYRYDYWGQGTQVTVSS”, the “polyreactivity (PSR sort gate)” value is listed as “low polyreactivity”.

Consider “QVQLVESGGGLVQAGGSLRLSCAASGRTFYYYAMGWYRQAPGKERELVARISYSGSNTYYADSVKGRFTISRDNAKNTVYLQMNSLKPEETAVYYCAAGYLVWRDSATLDYWGQGTQVTVSS”, for which the “polyreactivity (PSR sort gate)” value is on record as “high polyreactivity”.

Take “QVQLVESGGGLVQAGGSLRLSCAASGRTFYYYAMGWYRQAPGKERELVASITYYADSVKGRFTISRDNAKNTVYLQMNSLKPEDTAVYYCAAEHKYRYDYWGQGTQVTVSS”: the “polyreactivity (PSR sort gate)” value is “low polyreactivity”.

These data come from the nanobody polyreactivity screen of Harvey et al. (2022).
